T1: FcγRIIa R (FcγRIIa, allotype R: Arg at position 131) extracellular domain with C-terminal His tag (human, UniProt P12318 34-217)
T1 construct: extracellular domain; also called FcgRIIa R; 2aR; not shown: His tag at the C terminus
T1 sequence (looked up): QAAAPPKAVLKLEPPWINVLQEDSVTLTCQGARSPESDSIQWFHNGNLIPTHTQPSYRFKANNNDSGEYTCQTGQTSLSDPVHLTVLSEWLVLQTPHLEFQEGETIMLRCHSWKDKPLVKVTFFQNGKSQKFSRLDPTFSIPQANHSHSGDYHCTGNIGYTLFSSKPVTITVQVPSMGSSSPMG

T2: FcγRIIb extracellular domain with C-terminal His tag (human, UniProt P31994 43-217)
T2 construct: extracellular domain; also called FcgRIIb; 2b; not shown: His tag at the C terminus
T2 sequence (looked up): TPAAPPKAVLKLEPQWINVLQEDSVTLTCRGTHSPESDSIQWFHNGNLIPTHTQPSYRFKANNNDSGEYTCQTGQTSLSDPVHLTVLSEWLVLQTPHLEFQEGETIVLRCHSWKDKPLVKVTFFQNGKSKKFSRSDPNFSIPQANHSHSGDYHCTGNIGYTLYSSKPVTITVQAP

B1: GpH7-B3 variant S337_08L/GpL16-k0 (antibody, human IgG1, kappa)
heavy: not shown
light: DIVMTQSPLSLPVTPGEPASISCQASESLVHSNRNTYLHWYLQKPGQSPQLLIYKVSNRFSGVPDRFSGSGSGTDFTLKISRVEAEDVGVYYCSQNTHVPPTFGQGTKVEIERTVAAPSVFIFPPSDEQLKSGTASVVCLLNNFYPREAKVQWKVDNALQSGNSQESVTEQDSKDSTYSLSSTLTLSKADYEKHKVYACEVTHQGLSSPVTKSFNRGEC
notes: homodimerized, mutation in both H chains; also called Ho Ab
B2: GpH7-B3 variant T335_13S/GpL16-k0 (antibody, human IgG1, kappa)
heavy: not shown
light: B1 light
notes: as for B1
B3: GpH7-B3 variant T335_10E/GpL16-k0 (antibody, human IgG1, kappa)
heavy: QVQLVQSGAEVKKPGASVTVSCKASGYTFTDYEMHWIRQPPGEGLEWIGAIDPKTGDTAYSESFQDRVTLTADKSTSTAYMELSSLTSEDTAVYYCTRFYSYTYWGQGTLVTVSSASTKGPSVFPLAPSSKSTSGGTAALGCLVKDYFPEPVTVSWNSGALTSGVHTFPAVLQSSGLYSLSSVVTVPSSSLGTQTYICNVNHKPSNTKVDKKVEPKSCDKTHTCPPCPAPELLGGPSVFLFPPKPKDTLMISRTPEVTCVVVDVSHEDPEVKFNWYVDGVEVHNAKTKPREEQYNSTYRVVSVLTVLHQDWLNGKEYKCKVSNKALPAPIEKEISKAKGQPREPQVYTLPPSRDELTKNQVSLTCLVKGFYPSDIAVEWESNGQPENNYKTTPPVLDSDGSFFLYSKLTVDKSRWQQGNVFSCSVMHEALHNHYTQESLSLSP
light: B1 light
notes: as for B1
B4: GpH7-B3 variant K334_04F/GpL16-k0 (antibody, human IgG1, kappa)
heavy: not shown
light: B1 light
notes: as for B1
B5: GpH7-B3 variant I336_08L/GpL16-k0 (antibody, human IgG1, kappa)
heavy: not shown
light: B1 light
notes: as for B1
B6: GpH7-B3 variant T335_07I/GpL16-k0 (antibody, human IgG1, kappa)
heavy: not shown
light: B1 light
notes: as for B1
B7: GpH7-B3 variant S267_02A/GpL16-k0 (antibody, human IgG1, kappa)
heavy: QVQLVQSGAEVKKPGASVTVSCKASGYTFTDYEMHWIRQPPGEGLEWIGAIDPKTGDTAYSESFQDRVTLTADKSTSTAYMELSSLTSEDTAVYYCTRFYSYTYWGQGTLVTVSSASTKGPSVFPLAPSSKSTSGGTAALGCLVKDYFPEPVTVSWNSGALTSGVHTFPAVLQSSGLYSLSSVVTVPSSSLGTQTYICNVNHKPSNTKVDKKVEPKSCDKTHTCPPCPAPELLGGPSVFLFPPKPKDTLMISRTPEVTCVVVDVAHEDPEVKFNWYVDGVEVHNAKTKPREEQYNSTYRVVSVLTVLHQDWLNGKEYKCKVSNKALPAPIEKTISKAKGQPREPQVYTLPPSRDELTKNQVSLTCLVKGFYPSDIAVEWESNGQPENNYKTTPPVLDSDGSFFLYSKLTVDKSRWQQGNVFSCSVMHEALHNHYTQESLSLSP
light: B1 light
notes: as for B1
B8: GpH7-B3 variant S324_02A/GpL16-k0 (antibody, human IgG1, kappa)
heavy: not shown
light: B1 light
notes: as for B1
B9: GpH7-B3 variant T335_01G/GpL16-k0 (antibody, human IgG1, kappa)
heavy: not shown
light: B1 light
notes: as for B1
B10: GpH7-B3 variant S337_10E/GpL16-k0 (antibody, human IgG1, kappa)
heavy: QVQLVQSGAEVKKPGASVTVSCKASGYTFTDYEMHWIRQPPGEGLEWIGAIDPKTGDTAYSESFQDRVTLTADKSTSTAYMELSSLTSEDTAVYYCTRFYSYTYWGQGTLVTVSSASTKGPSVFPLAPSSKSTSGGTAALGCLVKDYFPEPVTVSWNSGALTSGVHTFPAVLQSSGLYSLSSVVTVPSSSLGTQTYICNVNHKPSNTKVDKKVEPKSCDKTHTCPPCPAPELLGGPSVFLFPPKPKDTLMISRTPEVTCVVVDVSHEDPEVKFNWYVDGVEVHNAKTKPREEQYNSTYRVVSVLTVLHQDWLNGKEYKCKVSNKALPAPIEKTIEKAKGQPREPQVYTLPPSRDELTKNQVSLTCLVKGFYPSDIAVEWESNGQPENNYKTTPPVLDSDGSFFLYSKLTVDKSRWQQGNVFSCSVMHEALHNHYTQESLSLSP
light: B1 light
notes: as for B1
B11: GpH7-B3 variant K334_08L/GpL16-k0 (antibody, human IgG1, kappa)
heavy: not shown
light: B1 light
notes: as for B1
B12: GpH7-B3 variant G236_03V/GpL16-k0 (antibody, human IgG1, kappa)
heavy: not shown
light: B1 light
notes: as for B1
B13: GpH7-B3 variant T335_18N/GpL16-k0 (antibody, human IgG1, kappa)
heavy: not shown
light: B1 light
notes: as for B1
B14: GpH7-B3 variant H268_18N/GpL16-k0 (antibody, human IgG1, kappa)
heavy: not shown
light: B1 light
notes: as for B1
B15: GpH7-B3 variant S337_09D/GpL16-k0 (antibody, human IgG1, kappa)
heavy: not shown
light: B1 light
notes: as for B1
B16: GpH7-B3 variant I336_06M/GpL16-k0 (antibody, human IgG1, kappa)
heavy: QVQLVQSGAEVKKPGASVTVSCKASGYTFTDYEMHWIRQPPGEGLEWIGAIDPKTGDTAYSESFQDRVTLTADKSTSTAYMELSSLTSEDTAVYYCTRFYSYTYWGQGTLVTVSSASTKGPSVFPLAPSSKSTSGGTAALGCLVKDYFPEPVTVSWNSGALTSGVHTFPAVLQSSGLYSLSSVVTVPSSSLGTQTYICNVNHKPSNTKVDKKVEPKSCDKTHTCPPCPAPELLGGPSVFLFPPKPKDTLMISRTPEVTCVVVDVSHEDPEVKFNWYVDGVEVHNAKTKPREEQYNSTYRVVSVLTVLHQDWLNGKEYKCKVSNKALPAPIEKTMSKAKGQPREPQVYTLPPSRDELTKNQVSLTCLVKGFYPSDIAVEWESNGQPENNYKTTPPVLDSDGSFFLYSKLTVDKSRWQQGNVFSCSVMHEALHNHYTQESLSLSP
light: B1 light
notes: as for B1
B17: GpH7-B3 variant Y296_04F/GpL16-k0 (antibody, human IgG1, kappa)
heavy: not shown
light: B1 light
notes: as for B1
B18: GpH7-B3 variant T335_15Y/GpL16-k0 (antibody, human IgG1, kappa)
heavy: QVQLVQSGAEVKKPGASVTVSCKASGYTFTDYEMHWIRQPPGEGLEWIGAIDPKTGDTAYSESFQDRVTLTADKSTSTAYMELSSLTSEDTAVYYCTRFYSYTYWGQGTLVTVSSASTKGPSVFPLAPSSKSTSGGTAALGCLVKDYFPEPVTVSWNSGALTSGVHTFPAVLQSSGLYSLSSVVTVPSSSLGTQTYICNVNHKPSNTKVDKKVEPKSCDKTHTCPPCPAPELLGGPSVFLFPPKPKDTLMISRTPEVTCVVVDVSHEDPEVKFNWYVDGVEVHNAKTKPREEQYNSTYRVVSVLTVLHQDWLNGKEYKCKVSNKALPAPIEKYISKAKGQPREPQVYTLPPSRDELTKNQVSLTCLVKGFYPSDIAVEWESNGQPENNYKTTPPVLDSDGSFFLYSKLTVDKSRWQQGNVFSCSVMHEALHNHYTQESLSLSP
light: B1 light
notes: as for B1
B19: GpH7-B3 variant E333_09D/GpL16-k0 (antibody, human IgG1, kappa)
heavy: not shown
light: B1 light
notes: as for B1
B20: GpH7-B3 variant T335_19Q/GpL16-k0 (antibody, human IgG1, kappa)
heavy: not shown
light: B1 light
notes: as for B1
B21: GpH7-B3 variant A330_16H/GpL16-k0 (antibody, human IgG1, kappa)
heavy: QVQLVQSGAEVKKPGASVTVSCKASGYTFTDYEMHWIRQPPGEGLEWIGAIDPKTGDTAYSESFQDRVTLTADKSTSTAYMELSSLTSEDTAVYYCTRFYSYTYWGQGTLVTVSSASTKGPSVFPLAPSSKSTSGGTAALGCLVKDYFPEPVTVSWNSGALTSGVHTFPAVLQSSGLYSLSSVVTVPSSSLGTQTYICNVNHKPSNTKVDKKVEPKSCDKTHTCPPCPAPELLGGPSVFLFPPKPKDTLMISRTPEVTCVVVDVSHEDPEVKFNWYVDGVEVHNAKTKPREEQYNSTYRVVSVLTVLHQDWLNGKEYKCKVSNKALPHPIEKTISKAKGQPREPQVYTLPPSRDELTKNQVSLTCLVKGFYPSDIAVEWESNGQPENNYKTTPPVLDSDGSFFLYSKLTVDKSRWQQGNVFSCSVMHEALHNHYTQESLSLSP
light: B1 light
notes: as for B1
B22: GpH7-B3 variant K326_10E/GpL16-k0 (antibody, human IgG1, kappa)
heavy: not shown
light: B1 light
notes: as for B1
B23: GpH7-B3 variant L328_20W/GpL16-k0 (antibody, human IgG1, kappa)
heavy: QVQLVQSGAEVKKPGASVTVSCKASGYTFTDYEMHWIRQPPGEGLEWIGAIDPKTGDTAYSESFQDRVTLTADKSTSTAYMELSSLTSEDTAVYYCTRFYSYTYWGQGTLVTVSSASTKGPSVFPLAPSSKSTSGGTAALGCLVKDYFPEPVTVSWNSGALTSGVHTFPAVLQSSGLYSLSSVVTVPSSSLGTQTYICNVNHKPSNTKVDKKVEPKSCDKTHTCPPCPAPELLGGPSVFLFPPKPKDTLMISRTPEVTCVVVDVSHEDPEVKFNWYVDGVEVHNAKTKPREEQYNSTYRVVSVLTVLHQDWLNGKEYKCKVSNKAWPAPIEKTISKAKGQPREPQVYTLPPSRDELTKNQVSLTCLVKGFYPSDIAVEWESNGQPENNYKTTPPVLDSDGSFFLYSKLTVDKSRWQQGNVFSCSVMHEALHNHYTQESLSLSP
light: B1 light
notes: as for B1
B24: GpH7-B3 variant K326_06M/GpL16-k0 (antibody, human IgG1, kappa)
heavy: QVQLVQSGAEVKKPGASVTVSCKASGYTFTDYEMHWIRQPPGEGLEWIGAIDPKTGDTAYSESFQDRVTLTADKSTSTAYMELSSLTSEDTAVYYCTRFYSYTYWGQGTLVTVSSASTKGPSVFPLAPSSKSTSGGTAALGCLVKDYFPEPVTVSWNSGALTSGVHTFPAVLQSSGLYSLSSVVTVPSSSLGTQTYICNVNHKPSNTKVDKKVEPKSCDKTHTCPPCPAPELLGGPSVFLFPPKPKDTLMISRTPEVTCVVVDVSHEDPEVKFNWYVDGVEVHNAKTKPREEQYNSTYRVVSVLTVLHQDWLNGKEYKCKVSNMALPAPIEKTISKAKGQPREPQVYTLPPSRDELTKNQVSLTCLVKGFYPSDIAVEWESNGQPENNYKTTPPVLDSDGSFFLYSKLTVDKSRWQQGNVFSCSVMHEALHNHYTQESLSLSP
light: B1 light
notes: as for B1
B25: GpH7-B3 variant K326_19Q/GpL16-k0 (antibody, human IgG1, kappa)
heavy: not shown
light: B1 light
notes: as for B1
B26: GpH7-B3 variant L235_04F/GpL16-k0 (antibody, human IgG1, kappa)
heavy: not shown
light: B1 light
notes: as for B1
B27: GpH7-B3 variant L328_14T/GpL16-k0 (antibody, human IgG1, kappa)
heavy: not shown
light: B1 light
notes: as for B1
B28: GpH7-B3 variant T335_20W/GpL16-k0 (antibody, human IgG1, kappa)
heavy: not shown
light: B1 light
notes: as for B1
B29: GpH7-B3 variant V266_08L/GpL16-k0 (antibody, human IgG1, kappa)
heavy: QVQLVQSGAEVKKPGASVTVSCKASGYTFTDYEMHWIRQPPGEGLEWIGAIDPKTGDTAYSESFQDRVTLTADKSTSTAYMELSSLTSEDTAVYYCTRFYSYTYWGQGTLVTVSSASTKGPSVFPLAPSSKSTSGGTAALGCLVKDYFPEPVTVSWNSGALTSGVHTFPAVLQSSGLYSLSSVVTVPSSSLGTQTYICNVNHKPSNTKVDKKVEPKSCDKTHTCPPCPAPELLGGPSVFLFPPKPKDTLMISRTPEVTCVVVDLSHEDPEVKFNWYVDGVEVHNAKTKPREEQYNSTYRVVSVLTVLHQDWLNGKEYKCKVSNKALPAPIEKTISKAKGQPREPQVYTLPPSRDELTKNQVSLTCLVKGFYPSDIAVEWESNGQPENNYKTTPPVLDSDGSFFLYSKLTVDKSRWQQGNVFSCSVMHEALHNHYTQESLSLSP
light: B1 light
notes: as for B1
B30: GpH7-B3 variant H268_02A/GpL16-k0 (antibody, human IgG1, kappa)
heavy: not shown
light: B1 light
notes: as for B1
B31: GpH7-B3 variant Y296_16H/GpL16-k0 (antibody, human IgG1, kappa)
heavy: not shown
light: B1 light
notes: as for B1
B32: GpH7-B3 variant S239_09D/GpL16-k0 (antibody, human IgG1, kappa)
heavy: not shown
light: B1 light
notes: as for B1
B33: GpH7-B3 variant T335_16H/GpL16-k0 (antibody, human IgG1, kappa)
heavy: not shown
light: B1 light
notes: as for B1
B34: GpH7-B3 variant K334_16H/GpL16-k0 (antibody, human IgG1, kappa)
heavy: not shown
light: B1 light
notes: as for B1
B35: GpH7-B3 variant S337_20W/GpL16-k0 (antibody, human IgG1, kappa)
heavy: not shown
light: B1 light
notes: as for B1
B36: GpH7-B3 variant G236_07I/GpL16-k0 (antibody, human IgG1, kappa)
heavy: not shown
light: B1 light
notes: as for B1
B37: GpH7-B3 variant L235_15Y/GpL16-k0 (antibody, human IgG1, kappa)
heavy: not shown
light: B1 light
notes: as for B1
B38: GpH7-B3 variant H268_19Q/GpL16-k0 (antibody, human IgG1, kappa)
heavy: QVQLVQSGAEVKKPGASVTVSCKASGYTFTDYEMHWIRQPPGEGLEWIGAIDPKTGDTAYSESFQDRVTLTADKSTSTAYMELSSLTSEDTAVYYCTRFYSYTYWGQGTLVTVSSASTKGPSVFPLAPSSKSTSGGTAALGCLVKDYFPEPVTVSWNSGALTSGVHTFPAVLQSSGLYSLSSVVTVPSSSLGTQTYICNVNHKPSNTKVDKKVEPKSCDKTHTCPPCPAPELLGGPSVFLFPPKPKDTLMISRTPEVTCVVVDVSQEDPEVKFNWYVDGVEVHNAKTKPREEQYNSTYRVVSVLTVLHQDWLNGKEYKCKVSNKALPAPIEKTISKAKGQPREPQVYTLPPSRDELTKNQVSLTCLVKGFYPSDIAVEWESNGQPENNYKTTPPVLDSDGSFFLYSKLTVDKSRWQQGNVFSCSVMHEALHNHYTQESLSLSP
light: B1 light
notes: as for B1
B39: GpH7-B3 variant L235_20W/GpL16-k0 (antibody, human IgG1, kappa)
heavy: not shown
light: B1 light
notes: as for B1
B40: GpH7-B3 variant Y296_09D/GpL16-k0 (antibody, human IgG1, kappa)
heavy: not shown
light: B1 light
notes: as for B1
B41: GpH7-B3 variant L328_06M/GpL16-k0 (antibody, human IgG1, kappa)
heavy: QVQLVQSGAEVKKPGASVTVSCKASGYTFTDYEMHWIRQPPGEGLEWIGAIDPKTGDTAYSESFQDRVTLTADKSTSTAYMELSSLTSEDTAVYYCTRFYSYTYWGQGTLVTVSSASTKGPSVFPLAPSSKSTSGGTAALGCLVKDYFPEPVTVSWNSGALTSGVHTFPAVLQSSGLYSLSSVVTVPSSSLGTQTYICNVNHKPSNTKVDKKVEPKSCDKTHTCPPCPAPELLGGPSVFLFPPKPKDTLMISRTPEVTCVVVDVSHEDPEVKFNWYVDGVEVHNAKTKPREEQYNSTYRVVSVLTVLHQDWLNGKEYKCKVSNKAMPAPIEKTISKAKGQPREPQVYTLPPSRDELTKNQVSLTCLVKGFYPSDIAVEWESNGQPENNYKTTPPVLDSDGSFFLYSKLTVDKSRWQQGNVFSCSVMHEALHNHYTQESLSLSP
light: B1 light
notes: as for B1
B42: GpH7-A5/GpH7-B3 variant Y296_16H/GpL16-k0 (antibody, human IgG1, kappa)
heavy 1: not shown
heavy 2: not shown
light: B1 light
notes: He Ab: alteration in the GpH7-B3 H chain only; also called He Ab
B43: GpH7-A5/GpH7-B3 variant Y296_14T/GpL16-k0 (antibody, human IgG1, kappa)
heavy 1: not shown
heavy 2: not shown
light: B1 light
notes: as for B42
B44: GpH7-A5/GpH7-B3 variant Y296_13S/GpL16-k0 (antibody, human IgG1, kappa)
heavy 1: not shown
heavy 2: not shown
light: B1 light
notes: as for B42
B45: GpH7-A5/GpH7-B3 variant Y300_18N/GpL16-k0 (antibody, human IgG1, kappa)
heavy 1: not shown
heavy 2: not shown
light: B1 light
notes: as for B42
B46: GpH7-A5/GpH7-B3 variant Y296_18N/GpL16-k0 (antibody, human IgG1, kappa)
heavy 1: not shown
heavy 2: not shown
light: B1 light
notes: as for B42
B47: GpH7-A5/GpH7-B3 variant Y300_04F/GpL16-k0 (antibody, human IgG1, kappa)
heavy 1: not shown
heavy 2: not shown
light: B1 light
notes: as for B42
B48: GpH7-A5/GpH7-B3 variant Y296_19Q/GpL16-k0 (antibody, human IgG1, kappa)
heavy 1: not shown
heavy 2: not shown
light: B1 light
notes: as for B42

biological target: FcγRIIa H (human FcγRIIa, allotype with His at position 131), extracellular domain with C-terminal His tag (human, UniProt P12318 34-217); test: SPR (Biacore), antibody captured on antigen peptide chip, FcγR as analyte; relative to HoCon Ab GpH7-B3/GpL16-k0 = 100

Ho/Con_2aH [control = 100] | Binder
93.1 | B1
101 | B2
105 | B3
103 | B4
101 | B5
105 | B6
120 | B7
102 | B8
101 | B9
101 | B10
103 | B11
111 | B12
98 | B13
110 | B14
107 | B15
100 | B16
95 | B17
102 | B18
103 | B19
103 | B20
101 | B21

Ho/Con_2aH [control = 100] | Binder
101 | B22
112 | B23
101 | B24
100 | B25
101 | B26
110 | B27
98.7 | B28
91.5 | B29
111 | B30
85.7 | B31
112 | B32
100 | B33
101 | B34
96.6 | B35
101 | B36
107 | B37
102 | B38
112 | B39
99.9 | B40
100 | B41

biological target: T1, FcγRIIa R (FcγRIIa, allotype R: Arg at …); test: SPR Biacore, antibody captured, FcgR analyte; vs HeCon Ab GpH7-A5/GpH7-B3/GpL16-k0 = 100
Method: (§1) The heterodimerized antibodies He Abs in which one of the H chains was introduced with an alteration were assayed for their binding activities to each activating FcγR and inhibitory FcγR according to the method described in Example 4. […] The activating FcγRs in FIGS. 26, 27, 28, and 29 are FcγRIa, FcγRIIa (R), FcγRIIa (H), and FcγRIIIa, respectively.
(§2) Analysis of interaction between objective antibody and the FcγR was carried out using Biacore T100 (GE Healthcare). HBS-EP+ (GE Healthcare) was used as the running buffer, and the measurement temperature was set to 25° C. Chips produced by immobilizing the antigen peptide by the amine coupling method to a Series S Sencor Chip CM5 (GE Healthcare), or alternatively, chips produced by allowing preliminarily biotinylated antigen peptides to interact with and immobilize onto a Series S Sensor Chip SA (certified) (GE Healthcare) were used. Antibodies of interest were captured onto an antigen peptide-immobilized chip, and allowed to interact to each FcγR diluted with running buffer. To regenerate and repeatedly use the chip, the antibodies captured on the chip were washed off by reacting 10 mM glycine-HCl, pH 1.5.

He/Con_2aR [control = 100] | Binder
105 | B42
103 | B43
102 | B44
100 | B45
104 | B46
108 | B47
102 | B48

biological target: T2, FcγRIIb extracellular domain with …; test: as above
Method: as §1, §2

He/Con_2b [control = 100] | Binder
92.2 | B42
88.2 | B43
86.3 | B44
82.7 | B45
91.5 | B46
94.8 | B47
89.3 | B48

— patent US20180155451A1 (published 2018)
